Test results from patent US10703784B2, “Antigens and epitopes derived from Mycobacterium tuberculosis” (priority 2011, dated 2020).

Tested on: PBMCs from LTBI donors (IFN-γ production)
Format: cell-based, human
Details: ex vivo IFN-γ ELISPOT; for Resp. freq.: fraction of 28 LTBI donors responding to epitopes of the antigen; for Total SFC: total spot-forming cells, LTBI donors

B1: Rv0124: MTB protein, novel CD4 T cell antigen; PE/PPE (protein, listed as Mycobacterium tuberculosis)
chain: MSFVSVAPEIVVAAATDLAGIGSAISAANAAAAAPTTAVLAAGADEVSAAIAALSGHAQAYQALSAQAAAFHQQFVQTLAGGAGAYAAAEAQVEQQLLAAINAPTQALLGRPLIGNGADGAPGTGQAGGAGGILYGNGGNGGSGAAGQAGGAGGPAGLIGHGGSGGAGGSGAAGGAGGHGGWLWGNGGVGGSGGAGVGAGVAGGHGGAGGAAGLWGAGGGGGNGGNGADANIVSGGDGGLGGAGGGGGWLYGDGGAGGHGGQGAIGLGGGAGGDGGQGGAGRGLWGTGGAGGHGGQGGGTGGPPLPGQAGMGAAGGAGGLIGNGGAGGDGGVGASGGVAGVGGAGGNAMLIGHGGAGGAGGDSSFANGAAGGAGGAGGHLFGNGGSGGHGGAVTAGNTGIGGAGGVGGDARLIGHGGAGGAGGDRAGALVGRDGGPGGNGGAGGQLYGNGGDGAPGTGGTLQAAVSGLVTALFGAPGQPGDTGQPG
  Resp. freq.: 14%
  Total SFC: 177 SFC

B2: Rv3876: MTB protein, novel CD4 T cell antigen; Cell wall and cell processes, Island 3, Esx-1 (protein, listed as Mycobacterium tuberculosis)
chain: MAADYDKLFRPHEGMEAPDDMAAQPFFDPSASFPPAPASANLPKPNGQTPPPTSDDLSERFVSAPPPPPPPPPPPPPTPMPIAAGEPPSPEPAASKPPTPPMPIAGPEPAPPKPPTPPMPIAGPEPAPPKPPTPPMPIAGPAPTPTESQLAPPRPPTPQTPTGAPQQPESPAPHVPSHGPHQPRRTAPAPPWAKMPIGEPPPAPSRPSASPAEPPTRPAPQHSRRARRGHRYRTDTERNVGKVATGPSIQARLRAEEASGAQLAPGTEPSPAPLGQPRSYLAPPTRPAPTEPPPSPSPQRNSGRRAERRVHPDLAAQHAAAQPDSITAATTGGRRRKRAAPDLDATQKSLRPAAKGPKVKKVKPQKPKATKPPKVVSQRGWRHWVHALTRINLGLSPDEKYELDLHARVRRNPRGSYQIAVVGLKGGAGKTTLTAALGSTLAQVRADRILALDADPGAGNLADRVGRQSGATIADVLAEKELSHYNDIRAHTSVNAVNLEVLPAPEYSSAQRALSDADWHFIADPASRFYNLVLADCGAGFFDPLTRGVLSTVSGVVVVASVSIDGAQQASVALDWLRNNGYQDLASRACVVINHIMPGEPNVAVKDLVRHFEQQVQPGRVVVMPWDRHIAAGTEISLDLLDPIYKRKVLELAAALSDDFERAGRR
  Resp. freq.: 18%
  Total SFC: 1323 SFC

B3: Rv0294: MTB protein, novel CD4 T cell antigen; Intermediary metabolism and respiration, Island 1 (protein, listed as Mycobacterium tuberculosis)
chain: MWDPDVYLAFSGHRNRPFYELVSRVGLERARRVVDLGCGPGHLTRYLARRWPGAVIEALDSSPEMVAAAAERGIDATTGDLRDWKPKPDTDVVVSNAALHWVPEHSDLLVRWVDELAPGSWIAVQIPGNFETPSHAAVRALARREPYAKLMRDIPFRVGAVVQSPAYYAELLMDTGCKVDVWETTYLHQLTGEHPVLDWITGSALVPVRERLSDESWQQFRQELIPLLNDAYPPRADGSTIFPFRRLFMVAEVGGARRSGG
  Resp. freq.: 18%
  Total SFC: 1368 SFC

B4: Rv2874: MTB protein, novel CD4 T cell antigen; Intermediary metabolism and respiration (protein, listed as Mycobacterium tuberculosis)
chain: MVESRRAAAAASAYASRCGIAPATSQRSLATPPTISVPSGEGRCRCHVARGAGRDPRRRLRRRRWCGRCGYHSHLTGGEFDVNRLCQQRSRERSCQLVAVPADPRPKRQRITDVLTLALVGFLGGLITGISPCILPVLPVIFFSGAQSVDAAQVAKPEGAVAVRRKRALSATLRPYRVIGGLVLSFGMVTLLGSALLSVLHLPQDAIRWAALVALVAIGAGLIFPRFEQLLEKPFSRIPQKQIVTRSNGFGLGLALGVLYVPCAGPILAAIVVAGATATIGLGTVVLTATFALGAALPLLFFALAGQRIAERVGAFRRRQREIRIATGSVTILLAVALVFDLPAALQRAIPDYTASLQQQISTGTEIREQLNLGGIVNAQNAQLSNCSDGAAQLESCGTAPDLKGITGWLNTPGNKPIDLKSLRGKVVLIDFWAYSCINCQRAIPHVVGWYQAYKDSGLAVIGVHTPEYAFEKVPGNVAKGAANLGISYPIALDNNYATWTNYRNRYWPAEYLIDATGTVRHIKFGEGDYNVTETLVRQLLNDAKPGVKLPQPSSTTTPDLTPRAALTPETYFGVGKVVNYGGGGAYDEGSAVFDYPPSLAANSFALRGRWALDYQGATSDGNDAAIKLNYHAKDVYIVVGGTGTLTVVRDGKPATLPISGPPTTHQVVAGYRLASETLEVRPSKGLQVFSFTYG
  Resp. freq.: 18%
  Total SFC: 798 SFC

B5: Rv1788: MTB protein, novel CD4 T cell antigen; PE/PPE (protein, listed as Mycobacterium tuberculosis)
chain: MSFVTTQPEALAAAAGSLQGIGSALNAQNAAAATPTTGVVPAAADEVSALTAAQFAAHAQIYQAVSAQAAAIHEMFVNTLQMSSGSYAATEAANAAAAG
  Resp. freq.: 25%
  Total SFC: 347 SFC

B6: Rv1791: MTB protein, novel CD4 T cell antigen; PE/PPE (protein, listed as Mycobacterium tuberculosis)
chain: MSFVTTQPEALAAAAANLQGIGTTMNAQNAAAAAPTTGVVPAAADEVSALTAAQFAAHAQMYQTVSAQAAAIHEMFVNTLVASSGSYAATEAANAAAAG
  Resp. freq.: 25%
  Total SFC: 355 SFC

B7: Rv0291: MTB protein, novel CD4 T cell antigen; Intermediary metabolism and respiration, Island 1 (protein, listed as Mycobacterium tuberculosis)
chain: MIRAAFACLAATVVVAGWWTPPAWAIGPPVVDAAAQPPSGDPGPVAPMEQRGACSVSGVIPGTDAGVPTPSQTMLNLPAAWQFSRGEGQLVAIIDTGVQPGPRLPNVDAGGDFVESTDGLTDCDGHGTLVAGIVAGQPGNDGFSGVAPAARLLSIRAMSTKFSPRTSGGDPQLAQATLDVAVLAGAIVHAADLGAKVINVSTITCLPADRMVDQAALGAAIRYAAVDKDAVIVAAAGNTGASGSVSASCDSNPLTDLSRPDDPRNWAGVTSVSIPSWWQPYVLSVASLTSAGQPSKFSMPGPWVGIAAPGENIASVSNSGDGALANGLPDAHQKLVALSGTSYAAGYVSGVAALVRSRYPGLNATEVVRRLTATAHRGARESSNIVGAGNLDAVAALTWQLPAEPGGGAAPAKPVADPPVPAPKDTTPRNVAFAGAAALSVLVGLTAATVAIARRRREPTE
  Resp. freq.: 14%
  Total SFC: 1153 SFC

B8: Rv3330: MTB protein, novel CD4 T cell antigen; Cell wall and cell processes (protein, listed as Mycobacterium tuberculosis)
chain: MAFLRSVSCLAAAVFAVGTGIGLPTAAGEPNAAPAACPYKVSTPPAVDSSEVPAAGEPPLPLVVPPTPVGGNALGGCGIITAPGSAPAPGDVSAEAWLVADLDSGAVIAARDPHGRHRPASVIKVLVAMASINTLTLNKSVAGTADDAAVEGTKVGVNTGGTYTVNQLLHGLLMHSGNDAAYALARQLGGMPAALEKINLLAAKLGGRDTRVATPSGLDGPGMSTSAYDIGLFYRYAWQNPVFADIVATRTFDFPGHGDHPGYELENDNQLLYNYPGALGGKTGYTDDAGQTFVGAANRDGRRLMTVLLHGTRQPIPPWEQAAHLLDYGFNTPAGTQIGTLIEPDPSLMSTDRNPADRQRVDPQAAARISAADALPVRVGVAVIGALIVFGLIMVARAMNRRPQH
  Resp. freq.: 29%
  Total SFC: 1595 SFC

B9: Rv0292: MTB protein, novel CD4 T cell antigen; Cell wall and cell processes, Island 1, Esx-3 (protein, listed as Mycobacterium tuberculosis)
chain: MNPIPSWPGRGRVTLVLLAVVPVALAYPWQSTRDYVLLGVAAAVVIGLFGFWRGLYFTTIARRGLAILRRRRRIAEPATCTRTTVLVWVGPPASDTNVLPLTLIARYLDRYGIRADTIRITSRVTASGDCRTWVGLTVVADDNLAALQARSARIPLQETAQVAARRLADHLREIGWEAGTAAPDEIPALVAADSRETWRGMRHTDSDYVAAYRVSANAELPDTLPAIRSRPAQETWIALEIAYAAGSSTRYTVAAACALRTDWRPGGTAPVAGLLPQHGNHVPALTALDPRSTRRLDGHTDAPADLLTRLHWPTPTAGAHRAPLTNAVSRT
  Resp. freq.: 14%
  Total SFC: 708 SFC

B10: Rv3125c: MTB protein, novel CD4 T cell antigen; PE/PPE (protein, listed as Mycobacterium tuberculosis)
chain: MVLGFSWLPPEINSARMFAGAGSGPLFAAASAWEGLAADLWASASSFESVLAALTTGPWTGPASMSMAAAASPYVGWLSTVASQAQLAAIQARAAATAFEAALAATVHPTAVTANRVSLASLIAANVLGQNTPAIAATEFDYLEMWAQDVAAMVGYHAGAKSVAATLAPFSLPPVSLAGLAAQVGTQVAGMATTASAAVTPVVEGAMASVPTVMSGMQSLVSQLPLQHASMLFLPVRILTSPITTLASMARESATRLGPPAGGLAAANTPNPSGAAIPAFKPLGGRELGAGMSAGLGQAQLVGSMSVPPTWQGSIPISMASSAMSGLGVPPNPVALTQAAGAAGGGMPMMLMPMSISGAGAGMPGGLMDRDGAGWHVTQARLTVIPRTGVG
  Resp. freq.: 21%
  Total SFC: 125 SFC

B11: Rv3135: MTB protein, novel CD4 T cell antigen; PE/PPE (protein, listed as Mycobacterium tuberculosis)
chain: MVLGFSWLPPEINSARMFAGAGSGPLFAAASAWEGLAADLWASASSFESVLAALTTGPWTGPASMSMAAAASPYVGWLSTVASQAQLAAIQARAAATAFEAALAATVHPTAVTANRVSLASLIAANVLGQNTPAIAATEFDYLEMWAQDVAAMVGYHAGAKSVAATLAPFSLPPVSLAGLAAQVGTQVAGMATTASAAVTPVVEGAMASVPTVMSGMQSLVSQLPLQHASMLFLPVRILTSPITTLASMARESATRLGPPAGGLAAANTPNPSGAAIPAFKPLGGRELGAGMSAGLGQAQLVGSMSVPPTWQGSIPISMASSAMSGLGVPPNPVALTQAAGAAGGGMPMMLMPMSISGAGAGMPGGLMDRDGAGWHVTQARLTVIPRTGVG
  Resp. freq.: 18%
  Total SFC: 317 SFC
